According to publication PMC2992962 (Protein expression and purification, 2010):

Molecular target: the molecule itself
Experiment: SEC

B1: recombinant human his-GAPDHS (sperm-specific glyceraldehyde-3-phosphate dehydrogenase lacking the proline-rich N-terminal sequence) (enzyme)
chain: MVSVARELTVGINGFGRIGRLVLRACMEKGVKVVAVNDPFIDPEYMVYMFKYDSTHGRYKGSVEFRNGQLVVDNHEISVYQCKEPKQIPWRAVGSPYVVESTGVYLSIQAASDHISAGAQRVVISAPSPDAPMFVMGVNENDYNPGSMNIVSNASCTTNCLAPLAKVIHERFGIVEGLMTTVHSYTATQKTVDGPSRKAWRDGRGAHQNIIPASTGAAKAVTKVIPELKGKLTGMAFRVPTPDVSVVDLTCRLAQPAPYSAIKEAVKAAAKGPMAGILAYTEDEVVSTDFLGDTHSSIFDAKAGIALNDNFVKLISWYDNEYGYSHRVVDLLRYMFSRDK
Q: How did the “stoichiometry N” value turn out when B1 was run?
A: 4
